Molecular target: CLDmut (CD4-linker-DC-SIGN fusion protein with a linker of 8 Gly4Ser repeats and the Cys-to-Ser back (human) (UniProt P01730))
Experiment: BLI

Substance: trimeric HIV-1 CN54 gp140 (domain or fragment)
- Kd: 0.39 nM
- koff: 1.62e-05 s⁻¹
- kon: 41100 M⁻¹ s⁻¹

From publication PMC9323411
